The text below walks through data of paper PMC12270161.

Series [1] has as its system P03420. In words: SEC; Superdex 200 Increase 10/300 GL, antigens (40 ug) in PBS; percent of total antigen in aggregate, trimer and monomer fractions by area under the curve. (In general: SEC sorts molecules by how far they enter the pores of the column.)
In series [2] the target is RSV F DsCav1 (pre-fusion stabilised comparator with foldon) (respiratory syncytial virus (RSV) | bacteriophage T4) (UniProt P03420). Described as above.
Test in series [3]: as above
Series [4] addresses hMPV F DsCavEs2 (pre-fusion stabilised comparator with foldon) (human metapneumovirus (hMPV) | bacteriophage T4). Described as above.
Series [5] has as its target hMPV Fsol (non-stabilised soluble hMPV F, post-fusion control) (human metapneumovirus (hMPV)). The series is described as above.

For “RSV F DsCav1 (pre-fusion stabilised comparator with foldon)”, the “percent trimer (SEC, area under curve)” value in series [1] is given as “RSV DSCav1, 69% trimer”.

Regarding “RSV F DsCav1 (pre-fusion stabilised comparator with foldon) (from UniProt P03420 26-524)”, in series [2], the stoichiometry N (usually a count of units in the complex or per binding partner) amounted to 3.

Consider “hMPV F DsCavEs2 (pre-fusion stabilised comparator with foldon)”, for which the “percent trimer (SEC, area under curve)” value in series [3] is “hMPV DSCavEs2, 54% trimer”. In addition, the stoichiometry N in series [4] came out at 3.

In the case of “hMPV Fsol (non-stabilised soluble hMPV F, post-fusion control)”, the “percent trimer (SEC, area under curve)” value in series [3] was “hMPV Fsol, 25% aggregate, 19% trimer, 56% monomer”.

As for “hMPV Fsol (non-stabilised soluble hMPV F, post-fusion control) (domain or fragment)”, in series [5], the stoichiometry N came out at 3.
